The results in this text go back to patent publication US20240382628A1.

This assay has as its target CD11b on cells in whole blood (species not stated) (Homo sapiens (Human)) (UniProt P11215). In words: adhesion of antibody-bearing backpacks to cells in whole blood.

Regarding “CD11b antibody (M1/70 clone, Biolegend Purified anti-mouse/human CD11b Antibody Cat #101201/101202), on polymeric particles (backpacks)”, the % of CD14+ monocytes with adhered backpacks is 95%.
